Assay results taken from US20110293558A1, “MATERIAL PROPERTIES OF T CELLS AND RELATED METHODS AND COMPOSITIONS” (Massachusetts Institute of Technology, priority 2010, published 2011).
“Also recorded” adds a separate entry of the source.

Columns and labels:
[1] = tested on: Acute promyelocytic leukemia cells; details: differentiation down the neutrophil lineage for three days; cited from earlier work
naïve WAS−/− T cells = assay: In vitro Transwell cell migration toward CCL19; type: cell-based, mouse
Procedure: (§1) Cells from the peripheral lymph nodes and the spleen of Balb/c mice and WAS−/− mice on Balb/c background were pooled and enriched using the EasySep Mouse CD8+ T Cell Enrichment Kit from STEMCELL Technologies (British Columbia, Canada). Enrichment was confirmed using fluorescence-activated cell sorting (FACS) by staining the cells with FITC/anti-Thy1.2 and PE/anti-CD8α antibodies (Abs). The memory T cell population was assessed by evaluating the expression of CD44 and CD62L via FACS. T cells in an activation medium with 100 units/mL IL-2 and 1% anti-CD28 Ab were activated by plate-bound anti-CD3 Abs for 4 day at 37° C. The activation medium included RPMI with 10% FBS, 10 mM HEPES (1M), 1% NEAA, 1% sodium pyruvate (100 mM), 50 μM β-mercaptoethanol, 4 mM L-glutamine, and 100 μg/mL Pen/Strep. Cell activation was verified via FACS measurement of CD25. Enriched WT and WAS−/− T cells in DMEM with 1% BSA and 0.1% Pen/Strep were induced to migrate through polycarbonate Transwell inserts (Costar, Cambridge, Mass.) with 5-μm pores in a 24-well plate toward a CCL19 chemokine source (R&D Systems, Minneapolis, Minn.). Inserts contained 5×10^5 cells in 100 μL of medium, and wells contained 1 mL of medium with either no CCL19 or 100 ng/mL of CCL19. Cells were allowed to migrate for ˜7 hours at 37° C., and those that crossed the membrane were collected and used for MPA studies.

naïve WT T cells = assay: In vitro Transwell cell migration toward CCL19; type: cell-based, mouse; details: after CCL19 exposure
Procedure: as §1

WT T cells = assay: Micropipette aspiration of chemokine-stimulated T cells; type: cell-based, mouse
Procedure: (§2) Micropipettes made using a micropipette puller were trimmed to 2.5-3 or 4.5-5 μm inner diameter for testing naïve and activated T cells. MPA glass chambers consisted of a 24 mm×60 mm microscope coverslip bottom, a U-shaped parafilm spacer, and a 22 mm×22 mm microscope coverslip top. The assembly was baked for two hours at 80° C. to ensure good adhesion between the components.
(§3) Enriched WT and WAS−/− T cells in DMEM with 1% BSA and 0.1% Pen/Strep were induced to migrate through polycarbonate Transwell inserts (Costar, Cambridge, Mass.) with 5-μm pores in a 24-well plate toward a CCL19 chemokine source (R&D Systems, Minneapolis, Minn.). Inserts contained 5×10^5 cells in 100 μL of medium, and wells contained 1 mL of medium with either no CCL19 or 100 ng/mL of CCL19. Cells were allowed to migrate for ˜7 hours at 37° C., and those that crossed the membrane were collected and used for MPA studies.
(§4) 3×10^5 cells in 100 μL RPMI with 10% FBS and 1% HEPES was stained with 10 μL trypan blue. The mixture was added to 600 μL of either the RPMI medium or the T cell activation medium with IL-2 for naïve and activated T cell testing. Migratory T cells were tested in the medium used for migration. The MPA device was based on the design of Hochmuth et al (18). The aspiration rate and volume were 36 mL/hr and 2 mL, corresponding to a total pressure of ˜400 Pa. The cell movement in the micropipette was recorded with a CCD camera. Aspirations were performed at approximately room temperature.
(§5) MPA data were fitting using the half-space model (77) described by the expressions:
(§6) where E is the cell modulus, L is the length from the micropipette opening to the cell leading edge, Δp is the pressure differential at a particular L, ri and ro are the inner and outer […] of the micropipette, and φ is the wall function that is approximately […]. The ImageJ software was used to manually track the change in L. By plotting Δp against ri/L and finding the best linear fit (minimal total error) a modulus could be derived from the slope of the line. […]

WAS−/− T cells = assay: as above; type: cell-based, mouse; details: naïve WAS−/− T cells
Procedure: as §2, §3, §4, §5, §6

Molecule	compliance of differentiated cells relative to control (more compliant) [1]	cells with naïve phenotype (CD62L and CD44 co-staining), FACS (naïve WAS−/− T cells; all three groups (untreated, remained in insert, migrated))	cells migrated (naïve WAS−/− T cells; seven hours exposure to CCL19, 100 ng/mL, 5-μm pore inserts)	migrating cells stained CD62L high and CD44 low (naïve phenotype), FACS (naïve WT T cells)	stiffness compared to activated cells (WT T cells; migratory WT cells after CCL19)	change in modulus before and after the chemokine treatment (Student's t test) (WT T cells; naïve WT T cells)	change in modulus before and after the chemokine treatment (Student's t test) (WAS−/− T cells)
CC1=C(/C=C/C(C)=C/C=C/C(C)=C/C(=O)O)C(C)(C)CCC1 [all-trans retinoic acid]	45%						
CCL19: chemokine CCL19 (R&D Systems) used as chemoattractant for T cells (protein, UniProt Q99731 22-98, looked up) C-C motif chemokine 19: GTNDAEDCCLSVTQKPIPGYIVRNFHYLLIKDGCRVPAVVFTTLRGRQLCAPPDQPWVERIIQRLQRTSAKMKRRSS		~90%	~6.4%	~90%	about 1.4 times	significantly different	did not pass the 95% significance level; also recorded: insignificant decrease
